According to PMC10901488 (Chemical Science, 2024):

Tests used:
[1] = due to its hydrophobicity; cited from earlier work
[2] = Solubilization test; format: physicochemical; details: model peptides before tagging, or product after reaction with Mal-(EK)3

Row | Substance | solubility [1] | solubility (in words) [2]
1 | insulin A chain: insulin A chain | poor solubility | 
2 | 1: C-terminal segment of IL-2 (residue 105–133) (CEYADETATIVEFLNRWITFCQSIISTLT; UniProt P60568 125-153, looked up, fragment) [compound 1] |  | poor solubility
